For orientation: Kd means the concentration at which binding is half-saturated.

The chains are these.
B1: CE115HA000 V11L/D72A/L78I/D101Q with GGS inserted between Kabat 99 and 100 (antibody)
heavy: QVQLVESGGGLVQPGRSLRLSCAASGFTFSNAWMHWVRQAPGKGLEWVAQIKAKSNNYATYYAESVKGRFTISRADSKNSIYLQMNSLKTEDTAVYYCRYVHYGAGGSYYGVQAWGQGTTVTVSSASTKGPSVFPLAPSSKSTSGGTAALGCLVKDYFPEPVTVSWNSGALTSGVHTFPAVLQSSGLYSLSSVVTVPSSSLGTQTYICNVNHKPSNTKVDKKVEPKSCDKTHTCPPCPAPEAAGGPSVFLFPPKPKDTLMISRTPEVTCVVVDVSHEDPEVKFNWYVDGVEVHNAKTKPREEQYASTYRVVSVLTVLHQDWLNGKEYKCKVSNKALPAPIEKTISKAKGQPREPQVYTLPPSRCELTKNQVSLSCAVKGFYPSDIAVEWESNGQPENNYKTTPPVLDSDGSFFLVSKLTVDKSRWQQGNVFSCSVMHEALHNHYTQKSLSLSPDYKDDDDK
Fc: EPKSSDKTHTCPPCPAPELLGGPSVFLFPPKPKDTLMISRTPEVTCVVVDVSHEDPEVKFNWYVDGVEVHNAKTKPREEQYNSTYRVVSVLTVLHQDWLNGKEYKCKVSNKALPAPIEKTISKAKGQPREPQVCTLPPSRDELTKNQVSLWCLVKGFYPSDIAVEWESNGQPENNYKTTPPVLDSDGSFFLYSKLTVDKSRWQQGNVFSCSVMHEALHNRYTQKSLSLSP
light: DIVMTQSPLSLPVTPGEPASISCRSSQSLVHSNRNTYLHWYQQKPGQAPRLLIYKVSNRFSGVPDRFSGSGSGTDFTLKISRVEAEDVGVYYCGQGTQVPYTFGQGTKLEIKRTVAAPSVFIFPPSDEQLKSGTASVVCLLNNFYPREAKVQWKVDNALQSGNSQESVTEQDSKDSTYSLSSTLTLSKADYEKHKVYACEVTHQGLSSPVTKSFNRGEC
notes: one-arm antibody
B2: CE115HA000 V11L/D72A/L78I/D101Q, no insertion (antibody, human IgG1, kappa, L234A L235A, N297A, name in Kabat numbering)
heavy: QVQLVESGGGLVQPGRSLRLSCAASGFTFSNAWMHWVRQAPGKGLEWVAQIKAKSNNYATYYAESVKGRFTISRADSKNSIYLQMNSLKTEDTAVYYCRYVHYGAYYGVQAWGQGTTVTVSSASTKGPSVFPLAPSSKSTSGGTAALGCLVKDYFPEPVTVSWNSGALTSGVHTFPAVLQSSGLYSLSSVVTVPSSSLGTQTYICNVNHKPSNTKVDKKVEPKSCDKTHTCPPCPAPEAAGGPSVFLFPPKPKDTLMISRTPEVTCVVVDVSHEDPEVKFNWYVDGVEVHNAKTKPREEQYASTYRVVSVLTVLHQDWLNGKEYKCKVSNKALPAPIEKTISKAKGQPREPQVYTLPPSRCELTKNQVSLSCAVKGFYPSDIAVEWESNGQPENNYKTTPPVLDSDGSFFLVSKLTVDKSRWQQGNVFSCSVMHEALHNHYTQKSLSLSPDYKDDDDK
chain: EPKSSDKTHTCPPCPAPELLGGPSVFLFPPKPKDTLMISRTPEVTCVVVDVSHEDPEVKFNWYVDGVEVHNAKTKPREEQYNSTYRVVSVLTVLHQDWLNGKEYKCKVSNKALPAPIEKTISKAKGQPREPQVCTLPPSRDELTKNQVSLWCLVKGFYPSDIAVEWESNGQPENNYKTTPPVLDSDGSFFLYSKLTVDKSRWQQGNVFSCSVMHEALHNRYTQKSLSLSP
light: DIVMTQSPLSLPVTPGEPASISCRSSQSLVHSNRNTYLHWYQQKPGQAPRLLIYKVSNRFSGVPDRFSGSGSGTDFTLKISRVEAEDVGVYYCGQGTQVPYTFGQGTKLEIKRTVAAPSVFIFPPSDEQLKSGTASVVCLLNNFYPREAKVQWKVDNALQSGNSQESVTEQDSKDSTYSLSSTLTLSKADYEKHKVYACEVTHQGLSSPVTKSFNRGEC
B3: CE115HA000 / GLS3000 one-arm antibody (antibody, human IgG1, kappa, L234A L235A, N297A)
heavy: QVQLVESGGGVVQPGRSLRLSCAASGFTFSNAWMHWVRQAPGKGLEWVAQIKAKSNNYATYYAESVKGRFTISRDDSKNSLYLQMNSLKTEDTAVYYCRYVHYGAYYGVDAWGQGTTVTVSSASTKGPSVFPLAPSSKSTSGGTAALGCLVKDYFPEPVTVSWNSGALTSGVHTFPAVLQSSGLYSLSSVVTVPSSSLGTQTYICNVNHKPSNTKVDKKVEPKSCDKTHTCPPCPAPEAAGGPSVFLFPPKPKDTLMISRTPEVTCVVVDVSHEDPEVKFNWYVDGVEVHNAKTKPREEQYASTYRVVSVLTVLHQDWLNGKEYKCKVSNKALPAPIEKTISKAKGQPREPQVYTLPPSRCELTKNQVSLSCAVKGFYPSDIAVEWESNGQPENNYKTTPPVLDSDGSFFLVSKLTVDKSRWQQGNVFSCSVMHEALHNHYTQKSLSLSPDYKDDDDK
chain: EPKSSDKTHTCPPCPAPELLGGPSVFLFPPKPKDTLMISRTPEVTCVVVDVSHEDPEVKFNWYVDGVEVHNAKTKPREEQYNSTYRVVSVLTVLHQDWLNGKEYKCKVSNKALPAPIEKTISKAKGQPREPQVCTLPPSRDELTKNQVSLWCLVKGFYPSDIAVEWESNGQPENNYKTTPPVLDSDGSFFLYSKLTVDKSRWQQGNVFSCSVMHEALHNRYTQKSLSLSP
light: DIVMTQSPLSLPVTPGEPASISCRSSQSLVHSNRNTYLHWYQQKPGQAPRLLIYKVSNRFSGVPDRFSGSGSGTDFTLKISRVEAEDVGVYYCGQGTQVPYTFGQGTKLEIKRTVAAPSVFIFPPSDEQLKSGTASVVCLLNNFYPREAKVQWKVDNALQSGNSQESVTEQDSKDSTYSLSSTLTLSKADYEKHKVYACEVTHQGLSSPVTKSFNRGEC
notes: one-arm antibody

The target of the experiment is T1, CD3ε homodimer protein (human, UniProt P07766 23-126, limits assumed).
T1 construct: also called human CD3ε homodimer protein; CD3e homodimer
T1 sequence (P07766 23-126 limits assumed): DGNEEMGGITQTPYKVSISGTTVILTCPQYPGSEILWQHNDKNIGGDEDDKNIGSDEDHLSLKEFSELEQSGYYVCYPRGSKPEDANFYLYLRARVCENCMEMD
In words: SPR (Biacore); CD3ε homodimer immobilized, one-arm antibody as analyte. Background: SPR reads the build-up and loss of mass on a sensor chip optically.
B1 had a Kd of 63.1 nM.

Turning to B2, the affinity, expressed as Kd, was 6.96 nM.

B3 registered a Kd of 110 nM.

(Values after US20220040297A1 (Chugai, published 2022).)
